Experimental data as given in PMC4787809 (Nucleic Acids Research, 2015).

Key:
[1] = biological target: Cascade (Cas7-tagged prep) (Escherichia coli) (UniProt Q46901+P76632+Q46899+Q46898+Q46897); test: EMSA
crystal structure = biological target: the molecule itself; test: crystal structure
[2] = biological target: T1, Cse1 (tail subunit of E. coli Cascade) (Escherichia coli K12, UniProt Q46901 1-502); test: crystal structure
T1 sequence: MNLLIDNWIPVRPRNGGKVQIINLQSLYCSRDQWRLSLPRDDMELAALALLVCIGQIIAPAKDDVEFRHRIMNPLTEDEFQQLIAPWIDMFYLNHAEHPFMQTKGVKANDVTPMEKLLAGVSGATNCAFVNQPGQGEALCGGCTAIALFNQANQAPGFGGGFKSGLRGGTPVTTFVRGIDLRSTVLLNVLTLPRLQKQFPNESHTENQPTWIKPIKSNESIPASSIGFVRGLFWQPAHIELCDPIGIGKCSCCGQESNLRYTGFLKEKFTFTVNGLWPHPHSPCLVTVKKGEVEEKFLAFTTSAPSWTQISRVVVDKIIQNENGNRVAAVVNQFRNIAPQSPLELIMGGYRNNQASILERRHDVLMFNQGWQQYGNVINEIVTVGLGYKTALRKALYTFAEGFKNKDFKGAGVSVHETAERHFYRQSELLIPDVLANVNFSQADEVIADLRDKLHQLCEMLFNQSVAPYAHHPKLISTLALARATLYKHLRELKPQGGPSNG

[3] = biological target: T2, Cascade (Cse2-tagged prep) (Escherichia coli, UniProt Q46901;P76632;Q46899;Q46898;Q46897 1-502;1-160;1-363;1-224;1-199); test: EMSA
T2 sequence 1: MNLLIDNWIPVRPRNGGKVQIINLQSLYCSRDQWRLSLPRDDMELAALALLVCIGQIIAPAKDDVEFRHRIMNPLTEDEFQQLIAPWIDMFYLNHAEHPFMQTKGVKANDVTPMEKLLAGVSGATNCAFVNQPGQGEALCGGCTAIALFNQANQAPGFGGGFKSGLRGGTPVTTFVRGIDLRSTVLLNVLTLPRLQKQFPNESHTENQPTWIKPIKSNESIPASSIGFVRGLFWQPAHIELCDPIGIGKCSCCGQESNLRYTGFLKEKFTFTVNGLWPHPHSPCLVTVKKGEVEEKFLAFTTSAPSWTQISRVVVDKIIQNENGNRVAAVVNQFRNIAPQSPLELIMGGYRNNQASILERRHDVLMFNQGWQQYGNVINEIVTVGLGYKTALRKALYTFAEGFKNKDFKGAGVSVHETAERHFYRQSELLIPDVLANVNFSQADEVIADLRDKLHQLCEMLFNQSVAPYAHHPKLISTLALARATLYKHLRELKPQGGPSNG
T2 sequence 2: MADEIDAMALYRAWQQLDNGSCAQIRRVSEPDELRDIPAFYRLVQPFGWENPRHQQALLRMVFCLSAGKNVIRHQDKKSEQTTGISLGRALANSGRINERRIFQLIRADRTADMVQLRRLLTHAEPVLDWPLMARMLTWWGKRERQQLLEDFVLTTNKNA
T2 sequence 3: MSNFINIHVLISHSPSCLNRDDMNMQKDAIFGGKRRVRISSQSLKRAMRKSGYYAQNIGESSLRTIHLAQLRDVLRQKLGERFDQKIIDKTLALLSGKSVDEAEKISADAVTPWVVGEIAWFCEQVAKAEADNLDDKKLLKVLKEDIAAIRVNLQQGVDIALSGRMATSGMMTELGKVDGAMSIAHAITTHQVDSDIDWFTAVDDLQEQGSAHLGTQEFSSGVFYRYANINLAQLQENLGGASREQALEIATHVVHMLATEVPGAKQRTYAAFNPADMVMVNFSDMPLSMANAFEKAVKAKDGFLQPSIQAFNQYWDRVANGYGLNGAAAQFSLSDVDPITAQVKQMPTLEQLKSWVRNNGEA
T2 sequence 4: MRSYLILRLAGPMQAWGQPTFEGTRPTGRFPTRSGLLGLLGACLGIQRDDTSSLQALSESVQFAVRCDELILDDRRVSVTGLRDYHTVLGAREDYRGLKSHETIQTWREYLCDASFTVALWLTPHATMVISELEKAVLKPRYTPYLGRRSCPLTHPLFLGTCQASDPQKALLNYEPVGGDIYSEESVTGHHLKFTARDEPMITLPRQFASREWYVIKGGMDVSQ
T2 sequence 5: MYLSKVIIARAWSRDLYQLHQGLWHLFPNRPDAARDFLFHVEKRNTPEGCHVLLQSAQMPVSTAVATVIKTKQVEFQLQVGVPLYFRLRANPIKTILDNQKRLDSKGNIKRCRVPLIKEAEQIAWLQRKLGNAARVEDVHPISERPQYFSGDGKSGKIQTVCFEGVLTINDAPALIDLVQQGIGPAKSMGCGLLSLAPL

Molecule: GCGCGGCAAGCCGAAAGCATGACGGTATTGTTCAGATCCTGGCTTGCCAACAGTGATTGCTCGGGAGTCGCT (double strand) [72 bp dsDNA target (+21), CAT PAM]
- Kd [1]: 13.3 nM

B1: Cas7 as in the crystallised Cascade (natural protein)
chain: MSNFINIHVLISHSPSCLNRDDMNMQKDAIFGGKRRVRISSQSLKRAMRKSGYYAQNIGESSLRTIHLAQLRDVLRQKLGERFDQKIIDKTLALLSGKSVDEAEKISADAVTPWVVGEIAWFCEQVAKAEADNLDDKKLLKVLKEDIAAIRVNLQQGVDIALSGRMATSGMMTELGKVDGAMSIAHAITTHQVDSDIDWFTAVDDLQEQGSAHLGTQEFSSGVFYRYANINLAQLQENLGGASREQALEIATHVVHMLATEVPGAKQRTYAAFNPADMVMVNFSDMPLSMANAFEKAVKAKDGFLQPSIQAFNQYWDRVANGYGLNGAAAQFSLSDVDPITAQVKQMPTLEQLKSWVRNNGEA
- stoichiometry N (crystal structure): 6

B2: Cas5e (subunit of E. coli Cascade) (natural protein)
chain: MRSYLILRLAGPMQAWGQPTFEGTRPTGRFPTRSGLLGLLGACLGIQRDDTSSLQALSESVQFAVRCDELILDDRRVSVTGLRDYHTVLGAREDYRGLKSHETIQTWREYLCDASFTVALWLTPHATMVISELEKAVLKPRYTPYLGRRSCPLTHPLFLGTCQASDPQKALLNYEPVGGDIYSEESVTGHHLKFTARDEPMITLPRQFASREWYVIKGGMDVSQ
- binding result [2]: binds

B3: 72 bp dsDNA target (+21), CAT PAM (dsDNA)
DNA 1: GCGCGGCAAGCCGAAAGCATGACGGTATTGTTCAGATCCTGGCTTGCCAACAGTGATTGCTCGGGAGTCGCT
DNA 2: AGCGACTCCCGAGCAATCACTGTTGGCAAGCCAGGATCTGAACAATACCGTCATGCTTTCGGCTTGCCGCGC
- Kd [3]: 1.14 nM
